Experimental data from article PMC12501149 (Proceedings of the National Academy of Sciences of the …, 2025).
Residue numbers refer to the chain shown, from its start.

How the values were obtained:
biotinylated RBD of TcsL [1] = target: T1, biotinylated RBD of TcsL (Paeniclostridium sordellii, UniProt Q46342 1-2364); assay: SPR; details: both partners purified
full length TcdB = full length TcdB (C. difficile, UniProt P18177 1-2366); assay: SPR; details: both partners purified
biotinylated RBD of TcsL [2] = target: T1, biotinylated RBD of TcsL; assay: SPR; details: both partners purified; remark: listed apart in the source
TcdB2 (TcdB 027) = TcdB2 (TcdB 027) (C. difficile); assay: cell-based or functional assay
[3] = target: TcdB 1285-1804 with C-terminal Avitag (RBD toxin fragment) (C. difficile, UniProt P18177 1285-1804); assay: SPR; details: both partners purified
biotinylated RBD of TcsL [4] = target: T1, biotinylated RBD of TcsL; assay: SPR; details: both partners purified; remark: listed apart in the source

Chain of TcdB 1285-1804 with C-terminal Avitag (RBD toxin fragment) (P18177 1285-1804): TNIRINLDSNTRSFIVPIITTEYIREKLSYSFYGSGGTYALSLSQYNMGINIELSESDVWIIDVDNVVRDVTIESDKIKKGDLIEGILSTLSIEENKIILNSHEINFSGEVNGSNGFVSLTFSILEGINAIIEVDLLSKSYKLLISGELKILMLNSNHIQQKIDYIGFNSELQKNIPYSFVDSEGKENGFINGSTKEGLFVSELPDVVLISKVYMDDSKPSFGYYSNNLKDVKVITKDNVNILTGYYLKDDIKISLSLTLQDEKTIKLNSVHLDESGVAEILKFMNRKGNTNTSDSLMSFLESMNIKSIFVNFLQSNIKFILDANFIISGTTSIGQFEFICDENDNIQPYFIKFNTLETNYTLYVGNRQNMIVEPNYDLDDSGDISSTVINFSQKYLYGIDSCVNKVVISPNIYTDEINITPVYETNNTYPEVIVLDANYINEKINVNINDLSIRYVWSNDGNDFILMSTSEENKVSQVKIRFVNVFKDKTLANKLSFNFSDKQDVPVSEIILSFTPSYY
T1 sequence (Q46342 whole entry): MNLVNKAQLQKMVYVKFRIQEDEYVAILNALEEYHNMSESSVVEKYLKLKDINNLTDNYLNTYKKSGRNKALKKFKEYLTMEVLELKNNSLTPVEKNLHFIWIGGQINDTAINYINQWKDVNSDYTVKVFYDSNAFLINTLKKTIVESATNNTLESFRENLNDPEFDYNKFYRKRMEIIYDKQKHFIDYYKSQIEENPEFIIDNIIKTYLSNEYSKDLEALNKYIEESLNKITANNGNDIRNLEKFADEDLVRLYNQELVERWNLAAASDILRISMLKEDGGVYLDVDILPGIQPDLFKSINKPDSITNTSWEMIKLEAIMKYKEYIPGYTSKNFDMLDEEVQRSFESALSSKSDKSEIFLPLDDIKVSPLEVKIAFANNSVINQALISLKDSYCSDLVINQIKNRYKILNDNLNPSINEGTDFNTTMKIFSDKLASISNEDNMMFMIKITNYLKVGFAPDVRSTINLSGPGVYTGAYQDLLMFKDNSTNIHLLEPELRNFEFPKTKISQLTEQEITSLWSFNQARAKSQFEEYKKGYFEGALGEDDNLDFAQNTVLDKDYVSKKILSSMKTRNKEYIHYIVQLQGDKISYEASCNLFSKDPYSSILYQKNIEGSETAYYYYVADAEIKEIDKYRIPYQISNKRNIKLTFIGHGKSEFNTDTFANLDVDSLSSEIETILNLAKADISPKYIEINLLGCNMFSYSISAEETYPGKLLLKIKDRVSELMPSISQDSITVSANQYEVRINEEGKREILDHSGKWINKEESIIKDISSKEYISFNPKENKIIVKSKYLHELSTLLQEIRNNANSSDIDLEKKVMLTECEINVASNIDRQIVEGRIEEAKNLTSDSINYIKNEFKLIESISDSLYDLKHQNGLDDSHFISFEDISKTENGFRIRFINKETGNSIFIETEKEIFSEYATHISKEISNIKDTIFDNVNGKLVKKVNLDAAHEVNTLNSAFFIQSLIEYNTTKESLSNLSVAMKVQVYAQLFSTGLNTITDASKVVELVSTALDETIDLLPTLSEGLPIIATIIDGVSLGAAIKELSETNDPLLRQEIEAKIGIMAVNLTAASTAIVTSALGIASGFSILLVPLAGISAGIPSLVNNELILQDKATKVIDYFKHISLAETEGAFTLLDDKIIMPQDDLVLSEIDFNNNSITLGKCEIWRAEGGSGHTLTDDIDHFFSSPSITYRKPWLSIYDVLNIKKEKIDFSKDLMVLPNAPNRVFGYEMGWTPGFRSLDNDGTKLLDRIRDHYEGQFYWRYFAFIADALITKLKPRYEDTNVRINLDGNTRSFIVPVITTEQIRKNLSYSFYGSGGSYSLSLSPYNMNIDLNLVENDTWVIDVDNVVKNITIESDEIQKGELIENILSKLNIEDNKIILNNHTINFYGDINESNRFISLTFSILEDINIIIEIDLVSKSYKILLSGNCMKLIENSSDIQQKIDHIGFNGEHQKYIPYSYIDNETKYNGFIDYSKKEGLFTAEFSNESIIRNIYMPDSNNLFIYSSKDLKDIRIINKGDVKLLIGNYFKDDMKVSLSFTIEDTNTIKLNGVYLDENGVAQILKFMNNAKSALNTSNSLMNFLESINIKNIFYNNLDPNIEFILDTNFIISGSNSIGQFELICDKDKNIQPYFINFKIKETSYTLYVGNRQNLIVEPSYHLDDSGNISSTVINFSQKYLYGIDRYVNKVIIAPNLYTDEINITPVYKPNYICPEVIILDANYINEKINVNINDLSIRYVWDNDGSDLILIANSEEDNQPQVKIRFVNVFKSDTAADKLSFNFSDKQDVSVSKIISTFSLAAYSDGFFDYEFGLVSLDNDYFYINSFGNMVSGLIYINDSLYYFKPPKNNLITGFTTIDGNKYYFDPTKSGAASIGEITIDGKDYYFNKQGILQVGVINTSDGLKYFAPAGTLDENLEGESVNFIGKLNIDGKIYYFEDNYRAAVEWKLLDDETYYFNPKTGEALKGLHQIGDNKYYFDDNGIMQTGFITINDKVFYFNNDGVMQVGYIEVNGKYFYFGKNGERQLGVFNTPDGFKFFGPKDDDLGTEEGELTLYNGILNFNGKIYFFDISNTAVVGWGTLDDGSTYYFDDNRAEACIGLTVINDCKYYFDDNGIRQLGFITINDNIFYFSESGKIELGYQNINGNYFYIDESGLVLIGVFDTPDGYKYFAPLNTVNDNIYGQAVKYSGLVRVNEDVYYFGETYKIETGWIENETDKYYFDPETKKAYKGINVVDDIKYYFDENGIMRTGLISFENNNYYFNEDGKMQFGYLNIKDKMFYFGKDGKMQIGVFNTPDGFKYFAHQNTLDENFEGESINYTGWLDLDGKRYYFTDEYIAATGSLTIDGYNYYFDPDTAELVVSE

B1: B4 (designed binder)
chain: TEEIIKEIKKMKEKGEKASSIIDLLKKAGYSEIAKKAELAALKSENMTEAAAEKAIEELK
B1 gave a Kd (biotinylated RBD of TcsL [1]) of 56.9 pM, a koff (biotinylated RBD of TcsL [1]) of 0.000112 s⁻¹ and a kon (biotinylated RBD of TcsL [1]) of 1.98e+06 M⁻¹ s⁻¹.

B2: cspg4 (designed binder)
chain: ENKLARAVVTVNKSWLATQLFVRLYRLCKAGDPRCEEVAEKLRKVLELQGVPETDIELVVEVAKG
B2 gave a Kd (full length TcdB) of 1980 pM, a koff (full length TcdB) of 0.0378 s⁻¹ and a kon (full length TcdB) of 1.91e+07 M⁻¹ s⁻¹.

B3: F4 (designed binder)
chain: NEELIKEIKKLLKEGKPASEILELLKKAGKEEIAKEAEKAALSSYDMTKAAAEEAIKKLK
In the case of B3, the Kd (biotinylated RBD of TcsL [2]) is reported as 4230 pM, the Kd (biotinylated RBD of TcsL [1]) is reported as 4280 pM and the koff (biotinylated RBD of TcsL [1]) is reported as 0.00928 s⁻¹. For the same binder, the kon (biotinylated RBD of TcsL [1]) was 2.17e+06 M⁻¹ s⁻¹.

B4: cspg67 (designed binder)
chain: AEELAKKLEEMAEVFKEKGDEEGAKECLKAAKIVRRSKNEEFGKWCIKKAEERLKKL
In the case of B4, the “IC50 of neutralization of TcdB2 in WT Vero cells (CSPG4-dependent entry), Figure S7B; 8-step 3-fold dilution series starting at 40 nM; mean across 2 independent replicates” value (TcdB2 (TcdB 027)) is reported as 1000 pM, the Kd (full length TcdB) is reported as 1950 pM and the koff (full length TcdB) is reported as 0.00387 s⁻¹. It also gave a kon (full length TcdB) of 1.99e+06 M⁻¹ s⁻¹.

B5: fzd48 (designed binder)
chain: KEELEKMIEELKKLIENGDKENFIKLFDEAFKKAKESRDPRTIASVWTLVLEFKNKN
Binder B5 has a Kd [3] of 0.00975 pM, a koff [3] of 3.33e-07 s⁻¹ and a kon [3] of 3.42e+07 M⁻¹ s⁻¹.

B6: fzd24 (designed binder)
chain: GEKSKLELLCKMLLTKAKLTGKQKYKNDLKELIEYLNEKGYPDLAKEASAKLEEI
In the case of B6, the Kd [3] is reported as 15.3 pM, the koff [3] is reported as 0.000649 s⁻¹ and the kon [3] is reported as 4.24e+07 M⁻¹ s⁻¹.

B7: ss2cspg18 (designed binder)
chain: MDEKVEKLKECLEKLKEKGDIKGVIDTERAIRICERSRHKEFCEWAIEKCENRIKES
notes: also called c18; dual disulfide version of cspg18
For B7, the Kd (full length TcdB) was 865 pM, the koff (full length TcdB) was 0.00164 s⁻¹ and the kon (full length TcdB) was 1.9e+06 M⁻¹ s⁻¹.

B8: ss2cspg27 (designed binder)
chain: B7 chain with K4L, I25T, R29K, K49A, N52A
notes: also called c27; dual disulfide version of cspg27
Binder B8 has a Kd (full length TcdB) of 507 pM, a koff (full length TcdB) of 0.000101 s⁻¹ and a kon (full length TcdB) of 199000 M⁻¹ s⁻¹.

B9: ss2cspg35 (designed binder)
chain: B7 chain with K4L, I21L, I25K, N52A
notes: also called dual disulfide version of cspg35
In the case of B9, the Kd (full length TcdB) is reported as 480 pM, the koff (full length TcdB) is reported as 8.03e-05 s⁻¹ and the kon (full length TcdB) is reported as 167000 M⁻¹ s⁻¹.

B10: fzd13 (designed binder)
chain: AEKEVQELIDKALNTPDPKVASKYIISAVYVAAKARDPSLFQSALDTAKKL
With B10 the Kd [3] was 5.55 pM, the koff [3] was 0.00014 s⁻¹ and the kon [3] was 2.53e+07 M⁻¹ s⁻¹.

B11: B4-M79 (designed binder)
chain: TEEIIKEIKKMKEKGEKASSIIDLLKKAGYSEIAKKAELAALKSENMTEAAAEKAIEELKGSQVKLEESGGGLVQAGGSLKLSCAASGSTFSSSSVGWYRQAPGQQRELVAAITSGGSTNTADSVKGRFTMSRDNAKNTVYLQMRDLKPEDTAVYYCNVAGRNWVPISRYSPGPYWGQGTQVTVSS
B11 showed a Kd (biotinylated RBD of TcsL [4]) of 9.9 pM.
